Results as given in the supplement of paper PMC9732359.
± gives the uncertainty stated by the source.

Test: protein stability index of a GFP-peptide fusion (yeast GPS) (PSI 1-4); higher = more stable; sorted into four equal gates, so the index is relative within each strain
Outline: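 Each library plasmid carries Cherry plus GFP with a tiled 17-residue yeast protein peptide fused downstream, and the pooled library was carried in yeast. Mid-log cultures in leucine-free medium were sorted into four equal gates by GFP/Cherry ratio. Reads from Illumina sequencing of PCR-amplified plasmids from each gate were assigned to strains by barcodes. Per peptide, the protein stability index was computed as the summed products of gate read frequency and gate number.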

Row | Sequence | protein stability index (doa10∆) | protein stability index (pdr5∆) | protein stability index (san1∆) | protein stability index (ubr1∆)
1 | RSTMMKFLKIASLKHDN [RPN3] | 2.18 ± 0.067 | 2.43 ± 0.072 | 2.86 ± 0.089 | 3.01 ± 0.057
2 | DSLIFKDSSLNYSSESY [YJL039C/NUP192] | 3.43 ± 0.089 | 3.25 ± 0.1 | 2.71 ± 0.21 | 3.17 ± 0.14
3 | QCNYSSLVFNRKLAVER [PRE5] | 2.23 ± 0.2 | 1.5 ± 0.18 | 1.46 ± 0.19 | 1.67 ± 0.2
4 | VTNSMRQTLAPYAVLSQ [YJR042W/NUP85] | 2.33 ± 0.065 | 2.83 ± 0.054 | 2.53 ± 0.051 | 2.62 ± 0.048
5 | NSNPTSNVFGSNNSTTN [YJL041W/NSP1] | 3.23 ± 0.079 | 3.43 ± 0.086 | 3.16 ± 0.055 | 3.46 ± 0.066
6 | FFSSDWRFLQILRNGID [POP1] | 2.29 ± 0.073 | 2.27 ± 0.088 | 2.5 ± 0.1 | 2.18 ± 0.072
7 | FNEDQLFSLLELGEQKC [RRP46] | 2.37 ± 0.071 | 2.6 ± 0.089 | 2.61 ± 0.071 | 2.36 ± 0.062
8 | NLANEQPVLEKPLKKGS [SIR4] | 2.31 ± 0.18 | 2.83 ± 0.093 | 3.08 ± 0.13 | 2.32 ± 0.089
9 | GGQRSLIALSLIMALLQ [SMC2] | 1.33 ± 0.056 | 1.52 ± 0.063 | 1.73 ± 0.099 | 2.24 ± 0.036
10 | DEDLHEFQIEDAIWSLV [SRB8] | 3.4 ± 0.13 | 2.96 ± 0.086 | 2.88 ± 0.14 | 3.3 ± 0.26
11 | TPSSDQNPLPTRFEVEL [SOH1] | 3.35 ± 0.088 | 3.1 ± 0.061 | 2.65 ± 0.075 | 3.19 ± 0.049
12 | LNDEGEPIKVNVRVGQA [RPN1] | 3.13 ± 0.09 | 3.03 ± 0.062 | 2.85 ± 0.065 | 3.2 ± 0.063
13 | TKSPAYPMMHQVRNQVF [RGR1] | 1.78 ± 0.047 | 1.88 ± 0.054 | 1.8 ± 0.077 | 2.23 ± 0.047
14 | EHGLHAPAYAWSHNGPF [CYT1] | 2.83 ± 0.11 | 3 ± 0.073 | 2.52 ± 0.087 | 2.87 ± 0.054
15 | PRLDDVVVDTVECAQHC [SMC4] | 3.22 ± 0.1 | 3.31 ± 0.13 | 3.17 ± 0.092 | 2.75 ± 0.13
16 | PSEDVAALKKTRKAARP [RPL6A] | 2.83 ± 0.062 | 3.02 ± 0.048 | 2.95 ± 0.039 | 3.05 ± 0.047
17 | FAKQVDVQLERVADEDA [IRR1] | 3.15 ± 0.15 | 3.13 ± 0.29 | 2.76 ± 0.26 | –
18 | ERIINVGVIGPLHSGKT [SNU114] | 2.87 ± 0.12 | 2.57 ± 0.11 | – | 2.94 ± 0.09
19 | RMMGCVKKQKSARGIET [FAS2] | 1.59 ± 0.09 | 1.4 ± 0.1 | 1.36 ± 0.16 | 1.48 ± 0.064
20 | ESSELNKDSIEECGRTI [CSN12] | 3.46 ± 0.18 | 2.92 ± 0.16 | 3.42 ± 0.089 | 3.28 ± 0.15
21 | LPEIAKEIYTTLGNQML [YJR042W/NUP85] | 2.28 ± 0.086 | 2.42 ± 0.087 | 2.87 ± 0.093 | 2.49 ± 0.069
22 | QIKGLQWMVSLFNNHLN [SNF2] | 1.79 ± 0.12 | 1.74 ± 0.097 | 1.4 ± 0.14 | 1.36 ± 0.058
23 | NGFMHAGTTDNSFIKAN [RPN2] | 1.24 ± 0.055 | 1.33 ± 0.045 | 1.35 ± 0.082 | 1.26 ± 0.051
24 | DVYTLPSYVHFKVQIIE [YML103C/NUP188] | 1.61 ± 0.055 | 1.71 ± 0.05 | 1.43 ± 0.069 | 1.66 ± 0.033
25 | VIKTLTVDVSSPTENGV [RPL22B] | 2.3 ± 0.14 | 2.55 ± 0.089 | 2.32 ± 0.13 | 2.83 ± 0.064
26 | GHLNGHTPTIASYLTPL [SSN2] | 2.24 ± 0.039 | 2.74 ± 0.043 | 2.62 ± 0.044 | 2.54 ± 0.035
27 | EVYKAEKDAVSVFGFRT [RPS24A] | 3.24 ± 0.15 | 3.12 ± 0.086 | 3.36 ± 0.07 | 3.31 ± 0.13

Row | Sequence | protein stability index (doa10∆) | protein stability index (pdr5∆) | protein stability index (san1∆) | protein stability index (ubr1∆)
28 | FTSHTRLRQGAAKLRTL [RPL2A] | 2.03 ± 0.059 | 1.68 ± 0.044 | 2.1 ± 0.073 | 1.95 ± 0.039
29 | LKLLKENIIQMEMIENR [FAS1] | 1.87 ± 0.065 | 2.27 ± 0.094 | 1.32 ± 0.12 | 1.93 ± 0.074
30 | AAEGLCKLFLADVFTDD [YCG1] | 3.25 ± 0.061 | 3.26 ± 0.061 | 3.14 ± 0.043 | 3.14 ± 0.039
31 | LMDDMSDISDLDDLGFL [RPN3] | 1.77 ± 0.062 | 1.81 ± 0.059 | 1.92 ± 0.091 | 1.77 ± 0.04
32 | NGIIMNGTLIGCVSYSP [YMR153W/NUP53] | 1.99 ± 0.066 | 1.95 ± 0.076 | 2.46 ± 0.21 | 2.24 ± 0.083
33 | ARAVQDNGESAFRTLRL [RPL13A] | 3 ± 0.13 | 2.88 ± 0.1 | 1.57 ± 0.098 | 2.87 ± 0.096
34 | QPVLEKPLKKGSADIGA [SIR4] | 3.16 ± 0.078 | 3.1 ± 0.061 | 3.08 ± 0.042 | 2.94 ± 0.055
35 | RQQQQRSILQSLNPALQ [SWI1] | 1.76 ± 0.051 | 1.92 ± 0.06 | 1.54 ± 0.084 | 1.89 ± 0.053
36 | GYFGKVGMRYFHKQQAH [RPL28] | 2.6 ± 0.14 | 2.76 ± 0.095 | 2.89 ± 0.12 | 2.84 ± 0.05
37 | VIQQDKYQKALHYLKKF [SRP72] | 1.61 ± 0.098 | 1.26 ± 0.079 | 1.2 ± 0.14 | 2.15 ± 0.1
38 | ANTPSIPTNPVDNENNK [SWI3] | 2.62 ± 0.08 | 2.8 ± 0.068 | 2.68 ± 0.053 | 3.08 ± 0.071
39 | FNGLKPLIQNSMRTIMK [PRP8] | 2.56 ± 0.091 | 2.51 ± 0.12 | 2.15 ± 0.17 | 2.56 ± 0.15
40 | DMDAQGRSDSNTEEKAE [YGL100W/SEH1] | 1.57 ± 0.038 | 1.67 ± 0.051 | 1.5 ± 0.14 | 1.4 ± 0.041
41 | SIKNNVAMCFVINKLDR [SNU114] | 1.9 ± 0.14 | 1.91 ± 0.12 | – | –
42 | MPFNDQGIVPDIIMNPH [RET1] | 2.71 ± 0.075 | 2.92 ± 0.059 | 2.87 ± 0.052 | 3.09 ± 0.042
43 | HNGREGSIEEPELNVSL [MCD1] | 3.31 ± 0.3 | 3.5 ± 0.15 | 3.07 ± 0.12 | 3.37 ± 0.071
44 | NSFKLFKAEKLQIVNQL [RPC17] | 2.82 ± 0.077 | 2.32 ± 0.076 | 1.85 ± 0.16 | 2.13 ± 0.056
45 | NQEDLFELVHHFFQIDG [YML103C/NUP188] | 2.97 ± 0.079 | 3.04 ± 0.065 | 2.85 ± 0.081 | 2.68 ± 0.051
46 | SIGINDVTPADDLKQKK [RPO31] | 2.99 ± 0.25 | – | – | –
47 | VGRLASVVAKQLLNGQK [RPL16A] | – | 1.89 ± 0.3 | 2.99 ± 0.13 | 1.67 ± 0.2
48 | GPDTKGQLEDFDSELIH [SMC3] | 3.1 ± 0.21 | 3.52 ± 0.18 | – | 3.62 ± 0.22
49 | IFNFDQLVEITEQIKMR [SRB8] | 1.59 ± 0.1 | 1.6 ± 0.082 | 1.66 ± 0.14 | 1.48 ± 0.057
50 | SAVVSSNASRRKLINYT [RPN4] | 2.77 ± 0.11 | 2.53 ± 0.14 | 2.55 ± 0.069 | 3.26 ± 0.14
51 | FLRKATAFNKTRGPFHF [RPL16B] | 3 ± 0.042 | 3.12 ± 0.045 | 2.78 ± 0.043 | 3.08 ± 0.033
52 | NNNVTAVPAATPANTNN [SWI1] | 2.79 ± 0.046 | 3.08 ± 0.046 | 2.76 ± 0.032 | 2.98 ± 0.042
53 | KNAANTEGHKGHEELKR [ISW2] | 3.43 ± 0.086 | 3.16 ± 0.081 | 3.2 ± 0.098 | 3.35 ± 0.061
